Results: the MegaScale stability set (Tsuboyama et al. 2023)

B1: 2M8U (parent)
chain: TKAQVIEAFKVFDRDGNGYVTVDYLRKVLNELGDMMPADEIEEMIYEADPQNSGYVQYETFVGMLFL

Variants of: B1
Test: folding stability dG (cDNA display proteolysis); higher = more stable
Conditions: PBS, room temperature

Variant	folding stability dG
TKAQVIEAFKVFDRDGNGYVTVDYLRKVLRELGDMMPADEIEEMIYEADPQNSGYVQYETFVGMLFL	3.54 kcal/mol
TKAQVIEAFKVFDRDGNGYVTVDYLRKVLSELGDMMPADEIEEMIYEADPQNSGYVQYETFVGMLFL	3.63 kcal/mol
TKAQVIEAFKVFDRDGNGYVTVDYLRKVLMELGDMMPADEIEEMIYEADPQNSGYVQYETFVGMLFL	3.63 kcal/mol
TKAQVIEAFKVFDRDGNGYVTVDYLRKVLYELGDMMPADEIEEMIYEADPQNSGYVQYETFVGMLFL	3.57 kcal/mol
TKAQVIEAFKVFDRDGNGYVTVDYLRKVLQELGDMMPADEIEEMIYEADPQNSGYVQYETFVGMLFL	3.4 kcal/mol
TKAQVIEAFKVFDRDGNGYVTVDYLRKVLPELGDMMPADEIEEMIYEADPQNSGYVQYETFVGMLFL	2.6 kcal/mol
TKAQVIEAFKVFDRDGNGYVTVDYLRKVLVELGDMMPADEIEEMIYEADPQNSGYVQYETFVGMLFL	3.38 kcal/mol
TKAQVIEAFKVFDRDGNGYVTVDYLRKVLTELGDMMPADEIEEMIYEADPQNSGYVQYETFVGMLFL	3.44 kcal/mol
TKAQVIEAFKVFDRDGNGYVTVDYLRKVLWELGDMMPADEIEEMIYEADPQNSGYVQYETFVGMLFL	3.71 kcal/mol
TKAQVIEAFKVFDRDGNGYVTVDYLRKVLNDLGDMMPADEIEEMIYEADPQNSGYVQYETFVGMLFL	3.62 kcal/mol
TKAQVIEAFKVFDRDGNGYVTVDYLRKVLNSLGDMMPADEIEEMIYEADPQNSGYVQYETFVGMLFL	3.64 kcal/mol
TKAQVIEAFKVFDRDGNGYVTVDYLRKVLNILGDMMPADEIEEMIYEADPQNSGYVQYETFVGMLFL	3.66 kcal/mol
TKAQVIEAFKVFDRDGNGYVTVDYLRKVLNRLGDMMPADEIEEMIYEADPQNSGYVQYETFVGMLFL	3.51 kcal/mol
TKAQVIEAFKVFDRDGNGYVTVDYLRKVLNKLGDMMPADEIEEMIYEADPQNSGYVQYETFVGMLFL	3.49 kcal/mol
TKAQVIEAFKVFDRDGNGYVTVDYLRKVLNLLGDMMPADEIEEMIYEADPQNSGYVQYETFVGMLFL	3.81 kcal/mol
TKAQVIEAFKVFDRDGNGYVTVDYLRKVLNQLGDMMPADEIEEMIYEADPQNSGYVQYETFVGMLFL	3.53 kcal/mol
TKAQVIEAFKVFDRDGNGYVTVDYLRKVLNHLGDMMPADEIEEMIYEADPQNSGYVQYETFVGMLFL	3.45 kcal/mol
TKAQVIEAFKVFDRDGNGYVTVDYLRKVLNCLGDMMPADEIEEMIYEADPQNSGYVQYETFVGMLFL	3.41 kcal/mol
TKAQVIEAFKVFDRDGNGYVTVDYLRKVLNPLGDMMPADEIEEMIYEADPQNSGYVQYETFVGMLFL	2.78 kcal/mol
TKAQVIEAFKVFDRDGNGYVTVDYLRKVLNVLGDMMPADEIEEMIYEADPQNSGYVQYETFVGMLFL	3.49 kcal/mol
TKAQVIEAFKVFDRDGNGYVTVDYLRKVLNWLGDMMPADEIEEMIYEADPQNSGYVQYETFVGMLFL	3.64 kcal/mol
TKAQVIEAFKVFDRDGNGYVTVDYLRKVLNGLGDMMPADEIEEMIYEADPQNSGYVQYETFVGMLFL	3.4 kcal/mol
TKAQVIEAFKVFDRDGNGYVTVDYLRKVLNALGDMMPADEIEEMIYEADPQNSGYVQYETFVGMLFL	3.47 kcal/mol
TKAQVIEAFKVFDRDGNGYVTVDYLRKVLNMLGDMMPADEIEEMIYEADPQNSGYVQYETFVGMLFL	3.74 kcal/mol
TKAQVIEAFKVFDRDGNGYVTVDYLRKVLNYLGDMMPADEIEEMIYEADPQNSGYVQYETFVGMLFL	3.4 kcal/mol
TKAQVIEAFKVFDRDGNGYVTVDYLRKVLNFLGDMMPADEIEEMIYEADPQNSGYVQYETFVGMLFL	3.53 kcal/mol
TKAQVIEAFKVFDRDGNGYVTVDYLRKVLNTLGDMMPADEIEEMIYEADPQNSGYVQYETFVGMLFL	3.58 kcal/mol

Variant	folding stability dG
TKAQVIEAFKVFDRDGNGYVTVDYLRKVLNNLGDMMPADEIEEMIYEADPQNSGYVQYETFVGMLFL	3.36 kcal/mol
TKAQVIEAFKVFDRDGNGYVTVDYLRKVLNELEDMMPADEIEEMIYEADPQNSGYVQYETFVGMLFL	3.48 kcal/mol
TKAQVIEAFKVFDRDGNGYVTVDYLRKVLNELPDMMPADEIEEMIYEADPQNSGYVQYETFVGMLFL	3.54 kcal/mol
TKAQVIEAFKVFDRDGNGYVTVDYLRKVLNELIDMMPADEIEEMIYEADPQNSGYVQYETFVGMLFL	4.07 kcal/mol
TKAQVIEAFKVFDRDGNGYVTVDYLRKVLNELVDMMPADEIEEMIYEADPQNSGYVQYETFVGMLFL	3.83 kcal/mol
TKAQVIEAFKVFDRDGNGYVTVDYLRKVLNELKDMMPADEIEEMIYEADPQNSGYVQYETFVGMLFL	3.46 kcal/mol
TKAQVIEAFKVFDRDGNGYVTVDYLRKVLNELNDMMPADEIEEMIYEADPQNSGYVQYETFVGMLFL	3.18 kcal/mol
TKAQVIEAFKVFDRDGNGYVTVDYLRKVLNELDDMMPADEIEEMIYEADPQNSGYVQYETFVGMLFL	3.25 kcal/mol
TKAQVIEAFKVFDRDGNGYVTVDYLRKVLNELCDMMPADEIEEMIYEADPQNSGYVQYETFVGMLFL	3.87 kcal/mol
TKAQVIEAFKVFDRDGNGYVTVDYLRKVLNELWDMMPADEIEEMIYEADPQNSGYVQYETFVGMLFL	3.55 kcal/mol
TKAQVIEAFKVFDRDGNGYVTVDYLRKVLNELYDMMPADEIEEMIYEADPQNSGYVQYETFVGMLFL	3.48 kcal/mol
TKAQVIEAFKVFDRDGNGYVTVDYLRKVLNELLDMMPADEIEEMIYEADPQNSGYVQYETFVGMLFL	3.89 kcal/mol
TKAQVIEAFKVFDRDGNGYVTVDYLRKVLNELRDMMPADEIEEMIYEADPQNSGYVQYETFVGMLFL	3.51 kcal/mol
TKAQVIEAFKVFDRDGNGYVTVDYLRKVLNELHDMMPADEIEEMIYEADPQNSGYVQYETFVGMLFL	3.25 kcal/mol
TKAQVIEAFKVFDRDGNGYVTVDYLRKVLNELQDMMPADEIEEMIYEADPQNSGYVQYETFVGMLFL	3.37 kcal/mol
TKAQVIEAFKVFDRDGNGYVTVDYLRKVLNELMDMMPADEIEEMIYEADPQNSGYVQYETFVGMLFL	4.14 kcal/mol
TKAQVIEAFKVFDRDGNGYVTVDYLRKVLNELFDMMPADEIEEMIYEADPQNSGYVQYETFVGMLFL	3.94 kcal/mol
TKAQVIEAFKVFDRDGNGYVTVDYLRKVLNELSDMMPADEIEEMIYEADPQNSGYVQYETFVGMLFL	3.28 kcal/mol
TKAQVIEAFKVFDRDGNGYVTVDYLRKVLNELADMMPADEIEEMIYEADPQNSGYVQYETFVGMLFL	3.79 kcal/mol
TKAQVIEAFKVFDRDGNGYVTVDYLRKVLNELTDMMPADEIEEMIYEADPQNSGYVQYETFVGMLFL	3.81 kcal/mol
TKAQVIEAFKVFDRDGNGYVTVDYLRKVLNETGDMMPADEIEEMIYEADPQNSGYVQYETFVGMLFL	2.55 kcal/mol
TKAQVIEAFKVFDRDGNGYVTVDYLRKVLNEFGDMMPADEIEEMIYEADPQNSGYVQYETFVGMLFL	3.66 kcal/mol
TKAQVIEAFKVFDRDGNGYVTVDYLRKVLNEPGDMMPADEIEEMIYEADPQNSGYVQYETFVGMLFL	1.83 kcal/mol
TKAQVIEAFKVFDRDGNGYVTVDYLRKVLNEYGDMMPADEIEEMIYEADPQNSGYVQYETFVGMLFL	3.28 kcal/mol
TKAQVIEAFKVFDRDGNGYVTVDYLRKVLNEWGDMMPADEIEEMIYEADPQNSGYVQYETFVGMLFL	3.33 kcal/mol
TKAQVIEAFKVFDRDGNGYVTVDYLRKVLNEQGDMMPADEIEEMIYEADPQNSGYVQYETFVGMLFL	2.62 kcal/mol
TKAQVIEAFKVFDRDGNGYVTVDYLRKVLNEVGDMMPADEIEEMIYEADPQNSGYVQYETFVGMLFL	3.26 kcal/mol

Variant	folding stability dG
TKAQVIEAFKVFDRDGNGYVTVDYLRKVLNESGDMMPADEIEEMIYEADPQNSGYVQYETFVGMLFL	2.56 kcal/mol
TKAQVIEAFKVFDRDGNGYVTVDYLRKVLNENGDMMPADEIEEMIYEADPQNSGYVQYETFVGMLFL	2.53 kcal/mol
TKAQVIEAFKVFDRDGNGYVTVDYLRKVLNEGGDMMPADEIEEMIYEADPQNSGYVQYETFVGMLFL	2.16 kcal/mol
TKAQVIEAFKVFDRDGNGYVTVDYLRKVLNEMGDMMPADEIEEMIYEADPQNSGYVQYETFVGMLFL	3.21 kcal/mol
TKAQVIEAFKVFDRDGNGYVTVDYLRKVLNEAGDMMPADEIEEMIYEADPQNSGYVQYETFVGMLFL	2.77 kcal/mol
TKAQVIEAFKVFDRDGNGYVTVDYLRKVLNEDGDMMPADEIEEMIYEADPQNSGYVQYETFVGMLFL	1.84 kcal/mol
TKAQVIEAFKVFDRDGNGYVTVDYLRKVLNECGDMMPADEIEEMIYEADPQNSGYVQYETFVGMLFL	2.76 kcal/mol
TKAQVIEAFKVFDRDGNGYVTVDYLRKVLNERGDMMPADEIEEMIYEADPQNSGYVQYETFVGMLFL	2.6 kcal/mol
TKAQVIEAFKVFDRDGNGYVTVDYLRKVLNEKGDMMPADEIEEMIYEADPQNSGYVQYETFVGMLFL	2.5 kcal/mol
TKAQVIEAFKVFDRDGNGYVTVDYLRKVLNEEGDMMPADEIEEMIYEADPQNSGYVQYETFVGMLFL	2.04 kcal/mol
TKAQVIEAFKVFDRDGNGYVTVDYLRKVLNEHGDMMPADEIEEMIYEADPQNSGYVQYETFVGMLFL	2.96 kcal/mol
TKAQVIEAFKVFDRDGNGYVTVDYLRKVLNEIGDMMPADEIEEMIYEADPQNSGYVQYETFVGMLFL	3.52 kcal/mol
TKAQVIEAFKVFDRDGNGYVTVDYLRKVLNELGLMMPADEIEEMIYEADPQNSGYVQYETFVGMLFL	4.44 kcal/mol
TKAQVIEAFKVFDRDGNGYVTVDYLRKVLNELGHMMPADEIEEMIYEADPQNSGYVQYETFVGMLFL	3.53 kcal/mol
TKAQVIEAFKVFDRDGNGYVTVDYLRKVLNELGAMMPADEIEEMIYEADPQNSGYVQYETFVGMLFL	3.54 kcal/mol
TKAQVIEAFKVFDRDGNGYVTVDYLRKVLNELGIMMPADEIEEMIYEADPQNSGYVQYETFVGMLFL	4.72 kcal/mol
TKAQVIEAFKVFDRDGNGYVTVDYLRKVLNELGKMMPADEIEEMIYEADPQNSGYVQYETFVGMLFL	3.43 kcal/mol
TKAQVIEAFKVFDRDGNGYVTVDYLRKVLNELGEMMPADEIEEMIYEADPQNSGYVQYETFVGMLFL	3.77 kcal/mol
TKAQVIEAFKVFDRDGNGYVTVDYLRKVLNELGFMMPADEIEEMIYEADPQNSGYVQYETFVGMLFL	4.68 kcal/mol
TKAQVIEAFKVFDRDGNGYVTVDYLRKVLNELGPMMPADEIEEMIYEADPQNSGYVQYETFVGMLFL	3.89 kcal/mol
TKAQVIEAFKVFDRDGNGYVTVDYLRKVLNELGNMMPADEIEEMIYEADPQNSGYVQYETFVGMLFL	3.58 kcal/mol
TKAQVIEAFKVFDRDGNGYVTVDYLRKVLNELGCMMPADEIEEMIYEADPQNSGYVQYETFVGMLFL	4.32 kcal/mol
TKAQVIEAFKVFDRDGNGYVTVDYLRKVLNELGMMMPADEIEEMIYEADPQNSGYVQYETFVGMLFL	4.24 kcal/mol
TKAQVIEAFKVFDRDGNGYVTVDYLRKVLNELGRMMPADEIEEMIYEADPQNSGYVQYETFVGMLFL	3.51 kcal/mol
TKAQVIEAFKVFDRDGNGYVTVDYLRKVLNELGQMMPADEIEEMIYEADPQNSGYVQYETFVGMLFL	3.79 kcal/mol
TKAQVIEAFKVFDRDGNGYVTVDYLRKVLNELGGMMPADEIEEMIYEADPQNSGYVQYETFVGMLFL	3.42 kcal/mol
